Patent US12516294B2, “Method for producing mesenchymal stem cells from living body-derived cell sample containing mesenchymal stem cells” (AJINOMOTO CO., INC., priority 2019, dated 2026)
“Also recorded” adds a separate entry of the source.

Columns and labels:
Assay type in all cases: cell-based
MNC [1] = test: MSC production by the kind of TGFβ receptor inhibitor (Example 4); conditions: 10 μM SB431542, 0.5 μM A-83-01 or 0.5 μM LDN-193189 in medium for seeding; Vitronectin (20-398 aa) coating; day 12 (FIG. 7)
Protocol: MNC (Lonza) was thawed using the following medium for seeding (1), (2) or (3). The above-mentioned cells were seeded at a concentration of 2.6×10^6 cells/well in a 24-well plate coated with Vitronectin (20-398 aa) (wako) at a concentration of 1.5 μg/cm^2, and cultured under the conditions of 37° C., 5% CO2. The next day of seeding, the entire amount of the medium in the plate was replaced with a medium for seeding (1), (2) or (3), and the medium for seeding (1), (2) or (3) in an amount corresponding to 20% of the amount of the medium in the plate was further added on day 3 and day 5 after seeding. Medium for seeding (1): StemFit (registered trade mark) AKO3N medium (Ajinomoto Co., Inc.) SOLUTION A, ¼ StemFit (registered trade mark) AKO3N medium (Ajinomoto Co., Inc.) SOLUTION B, 3 ng/mL bFGF (peprotech), 10 μM SB431542 (Stemgent), 1/100 Lipid Concentrate (Life Technologies), 10 nM Dexamethasone (Sigma-Aldrich), 10 ng/mL PDGF-BB (FUJIFILM Wako Pure Chemical Industries, Ltd.), 1 mM Lithium Chloride (Sigma-Aldrich)
(§1) Medium for seeding (2): StemFit (registered trade mark) AKO3N medium (Ajinomoto Co., Inc.) SOLUTION A, ¼ StemFit (registered trade mark) AKO3N medium (Ajinomoto Co., Inc.) SOLUTION B, 3 ng/mL bFGF (peprotech), 0.5 μM A-83-01 (wako), 1/100 Lipid Concentrate (Life Technologies), 10 nM Dexamethasone (Sigma-Aldrich), 10 ng/mL PDGF-BB (FUJIFILM Wako Pure Chemical Industries, Ltd.), 1 mM Lithium Chloride (Sigma-Aldrich)
as §1, with “for seeding (3): StemFit (registered” for “for seeding (2): StemFit (registered”, “0.5 μM LDN-193189 (Stemgent), 1/100 Lipid” for “0.5 μM A-83-01 (wako), 1/100 Lipid”, “Chloride (Sigma-Aldrich) […]” for “Chloride (Sigma-Aldrich)”
After confirming that the cells became sub-confluent, the cells were passaged on day 12 after seeding, and the number of cells was measured.

[2] = test system: bone marrow mononuclear cells (MNC); test: Number of cells after re-seeding of dissociated aggregates (Example 1); conditions: coating at MNC seeding 1.5 μg/cm^2, aggregates re-seeded day 7, counted day 13, compared with Fibronectin coating
Protocol: Due to the limitations of purification techniques, bone marrow mononuclear cells (MNC) separated from bone marrow are slightly contained with mesenchymal stem cells (MSC). In this Example, a method for producing MSC from MNC by using a serum-free medium is verified. Bone marrow mononuclear cells (MNC) (Lonza) were thawed using the following medium for seeding. The above-mentioned cells were seeded at a concentration of 2.6×10^6 cells/well in a 24-well plate coated with Fibronectin (Sigma) or Vitronectin (wako) each at a concentration of 1.5 μg/cm^2, and cultured under the conditions of 37° C., 5% CO2. The next day of seeding, the entire amount of the medium in the plate was replaced with a medium for seeding, and the medium for seeding in an amount corresponding to 20% of the amount of the medium in the plate was further added on day 3 and day 5 after seeding. […]
After confirming that the cells became sub-confluent, the cells were passaged on day 13 after seeding, and the number of cells was measured.

[3] = test system: bone marrow mononuclear cells (MNC); test: Formation of MSC cell aggregates from MNC seeded on coated plates in serum-free medium (Example 1); conditions: plate coated at 1.5 μg/cm^2 at MNC seeding, day 5 after seeding, compared with Fibronectin coating
Protocol: Due to the limitations of purification techniques, bone marrow mononuclear cells (MNC) separated from bone marrow are slightly contained with mesenchymal stem cells (MSC). In this Example, a method for producing MSC from MNC by using a serum-free medium is verified. Bone marrow mononuclear cells (MNC) (Lonza) were thawed using the following medium for seeding. The above-mentioned cells were seeded at a concentration of 2.6×10^6 cells/well in a 24-well plate coated with Fibronectin (Sigma) or Vitronectin (wako) each at a concentration of 1.5 μg/cm^2, and cultured under the conditions of 37° C., 5% CO2. The next day of seeding, the entire amount of the medium in the plate was replaced with a medium for seeding, and the medium for seeding in an amount corresponding to 20% of the amount of the medium in the plate was further added on day 3 and day 5 after seeding. Medium for seeding: StemFit (registered trade mark) AKO3N medium (Ajinomoto Co., Inc.) SOLUTION A, StemFit (registered trade mark) AKO3N medium (Ajinomoto Co., Inc.) SOLUTION B, 3 ng/mL bFGF (peprotech), 10 μM 5B431542 (Stemgent), 1/100 Lipid Concentrate (Life Technologies), 10 nM Dexamethasone (Sigma-Aldrich), 10 ng/mL PDGF-BB (FUJIFILM Wako Pure Chemical Industries, Ltd.), 1 mM Lithium Chloride (Sigma-Aldrich)

MNC [4] = test: MSC production from MNC by the kind of Vitronectin (Example 2); conditions: coating 1.5 μg/cm^2, 2.6×10^6 cells/well, 13 days after MNC seeding (FIG. 4)
Protocol: MNC (Lonza) was thawed using the following medium for seeding (serum-free). The above-mentioned cells were seeded at a concentration of 2.6×10^6 cells/well in 24-well plates coated with Vitronectin (20-398 aa) (wako) (corresponding to amino acid Nos. 1-379 of SEQ ID NO: 1), Vitronectin (VTN-N, 62-478 aa) (Life Technologies) (corresponding to amino acid Nos. 43-459 of SEQ ID NO: 1) or Vitronectin (Full length, 20-478 aa) (Sigma) (corresponding to SEQ ID NO: 1) at a concentration of 1.5 μg/cm^2, and cultured under the conditions of 37° C., 5% CO2. In addition, the cells were seeded at a concentration of 1.6×10^6 cells/well in a 24-well plate coated with Vitronectin (20-398 aa) (wako) or Synthemax II (CORNING) at concentrations of 1.5 μg/cm^2 and 5.0 μg/cm^2, respectively, and cultured under the conditions of 37° C., 5% CO2. Synthemax II is a vitronectin-based synthetic peptide containing RGD motif and flanking sequence. The next day of seeding, the entire amount of the medium in the plate was replaced with a medium for seeding, and the medium for seeding in an amount corresponding to 20% of the amount of the medium in the plate was further added on day 3 and day 5 after seeding. […]
After confirming that the cells became sub-confluent, the cells were passaged on days 12 and 13 after seeding, and the number of cells was measured.

## Cc1cccc(-c2nn(C(=S)Nc3ccccc3)cc2-c2ccnc3ccccc23)n1 [A-83-01]
MNC [1]
  MSC production from MNC (number of MSC): MSC could be efficiently produced from MNC

## c1ccc2c(-c3cnn4cc(-c5ccc(N6CCNCC6)cc5)cnc34)ccnc2c1 [LDN-193189]
MNC [1]
  MSC production from MNC (number of MSC): MSC could be efficiently produced from MNC

## NC(=O)c1ccc(-c2nc(-c3ccc4c(c3)OCO4)c(-c3ccccn3)[nH]2)cc1 [SB431542]
MNC [1]
  MSC production from MNC (number of MSC): MSC could be efficiently produced from MNC

B1: Vitronectin: Vitronectin (wako) used to coat 24-well plates at 1.5 μg/cm^2 in Example 1 (protein, UniProt P04004 20-478, looked up)
Vitronectin: DQESCKGRCTEGFNVDKKCQCDELCSYYQSCCTDYTAECKPQVTRGDVFTMPEDEYTVYDDGEEKNNATVHEQVGGPSLTSDLQAQSKGNPEQTPVLKPEEEAPAPEVGASKPEGIDSRPETLHPGRPQPPAEEELCSGKPFDAFTDLKNGSLFAFRGQYCYELDEKAVRPGYPKLIRDVWGIEGPIDAAFTRINCQGKTYLFKGSQYWRFEDGVLDPDYPRNISDGFDGIPDNVDAALALPAHSYSGRERVYFFKGKQYWEYQFQHQPSQEECEGSSLSAVFEHFAMMQRDSWEDIFELLFWGRTSAGTRQPQFISRDWHGVPGQVDAAMAGRIYISGMAPRPSLAKKQRFRHRNRKGYRSQRGHSRGRNQNSRRPSRATWLSLFSSEESNLGANNYDDYRMDWLVPATCEPIQSVFFFSGDKYYRVNLRTRRVDTVDPPYPRSIAQYWLGCPAPGHL
[2]
  number of cells obtained by the subsequent re-seeding: larger
[2]; listed as vitronectin
  number of cells obtained by the subsequent re-seeding: remarkably higher
[3]
  number of cell aggregates obtained: More cell aggregates were formed; also recorded: larger

B2: Vitronectin (20-398 aa) (wako): commercially available partial peptide of vitronectin, corresponding to amino acid Nos. 1-379 of SEQ ID NO: 1 (protein, listed as Homo sapiens)
chain: DQESCKGRCTEGFNVDKKCQCDELCSYYQSCCTDYTAECKPQVTRGDVFTMPEDEYTVYDDGEEKNNATVHEQVGGPSLTSDLQAQSKGNPEQTPVLKPEEEAPAPEVGASKPEGIDSRPETLHPGRPQPPAEEELCSGKPFDAFTDLKNGSLFAFRGQYCYELDEKAVRPGYPKLIRDVWGIEGPIDAAFTRINCQGKTYLFKGSQYWRFEDGVLDPDYPRNISDGFDGIPDNVDAALALPAHSYSGRERVYFFKGKQYWEYQFQHQPSQEECEGSSLSAVFEHFAMMQRDSWEDIFELLFWGRTSAGTRQPQFISRDWHGVPGQVDAAMAGRIYISGMAPRPSLAKKQRFRHRNRKGYRSQRGHSRGRNQNSRRPSR
MNC [4]
  MSC production from MNC (number of MSC): could produce MSC most efficiently from MNC
